# Data from patent US20200040059A1 (ALPINE IMMUNE SCIENCES, published 2020).
# Molecular target: human ICOS as used for the 'ICOS OD' read-out of Table 14 (human)
# Test: binding read as OD; format not described
# human ICOS as used for the 'ICOS OD' read-out of Table 14 (human), sequence (Q9Y6W8 whole entry): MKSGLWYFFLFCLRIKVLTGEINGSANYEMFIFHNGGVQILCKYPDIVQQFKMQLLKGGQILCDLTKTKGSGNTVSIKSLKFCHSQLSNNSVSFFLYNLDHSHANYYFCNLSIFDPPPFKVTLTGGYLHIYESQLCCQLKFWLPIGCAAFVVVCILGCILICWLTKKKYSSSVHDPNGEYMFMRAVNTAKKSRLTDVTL
ICOS OD,ICOS OD parental ratio,Binder
1.59 OD,1.85 ratio to WT ICOSL ECD-Fc,"ICOSL variant N52D ECD-Fc fusion (Fc fusion, not shown: no entry of the listing is held) DTQEKEVRAMVGSDVELSCACPEGSRFDLNDVYVYWQTSESKTVVTYHIPQDSSLENVDSRYRNRALMSPAGMLRGDFSLRLFNVTPQDEQKFHCLVLSQSLGFQEVLSVEVTLHVAANFSVPVVSAPHSPSQDELTFTCTSINGYPRPNVYWINKTDNSLLDQALQNDTVFLNMRGLYDVVSVLRIARTPSVNIGCCIENVLLQQNLTVGSQTGNDIGERDKITENPVSTGEKNAAT"
1.57 OD,1.83 ratio to WT ICOSL ECD-Fc,"ICOSL variant N52H/N57Y/Q100P ECD-Fc fusion (Fc fusion, not shown: no entry of the listing is held) DTQEKEVRAMVGSDVELSCACPEGSRFDLNDVYVYWQTSESKTVVTYHIPQHSSLEYVDSRYRNRALMSPAGMLRGDFSLRLFNVTPQDEQKFHCLVLSPSLGFQEVLSVEVTLHVAANFSVPVVSAPHSPSQDELTFTCTSINGYPRPNVYWINKTDNSLLDQALQNDTVFLNMRGLYDVVSVLRIARTPSVNIGCCIENVLLQQNLTVGSQTGNDIGERDKITENPVSTGEKNAAT"
0.16 OD,0.19 ratio to WT ICOSL ECD-Fc,"ICOSL variant N52S/S130G/Y152C ECD-Fc fusion (Fc fusion, not shown: The AAA linker to it is left out) DTQEKEVRAMVGSDVELSCACPEGSRFDLNDVYVYWQTSESKTVVTYHIPQSSSLENVDSRYRNRALMSPAGMLRGDFSLRLFNVTPQDEQKFHCLVLSQSLGFQEVLSVEVTLHVAANFSVPVVSAPHGPSQDELTFTCTSINGYPRPNVCWINKTDNSLLDQALQNDTVFLNMRGLYDVVSVLRIARTPSVNIGCCIENVLLQQNLTVGSQTGNDIGERDKITENPVSTGEKNAAT"
1.26 OD,1.47 ratio to WT ICOSL ECD-Fc,"ICOSL variant N52S/Y146C/Y152C ECD-Fc fusion (Fc fusion, not shown: a dimerising Fc or GST; small tags and cut ends) DTQEKEVRAMVGSDVELSCACPEGSRFDLNDVYVYWQTSESKTVVTYHIPQSSSLENVDSRYRNRALMSPAGMLRGDFSLRLFNVTPQDEQKFHCLVLSQSLGFQEVLSVEVTLHVAANFSVPVVSAPHSPSQDELTFTCTSINGCPRPNVCWINKTDNSLLDQALQNDTVFLNMRGLYDVVSVLRIARTPSVNIGCCIENVLLQQNLTVGSQTGNDIGERDKITENPVSTGEKNAAT"
0.63 OD,0.73 ratio to WT ICOSL ECD-Fc,"ICOSL variant F120S/Y152H/N201S ECD-Fc fusion (Fc fusion, not shown: C220S/R292C/N297G/V302C) and the AAA linker to it) DTQEKEVRAMVGSDVELSCACPEGSRFDLNDVYVYWQTSESKTVVTYHIPQNSSLENVDSRYRNRALMSPAGMLRGDFSLRLFNVTPQDEQKFHCLVLSQSLGFQEVLSVEVTLHVAANSSVPVVSAPHSPSQDELTFTCTSINGYPRPNVHWINKTDNSLLDQALQNDTVFLNMRGLYDVVSVLRIARTPSVNIGCCIESVLLQQNLTVGSQTGNDIGERDKITENPVSTGEKNAAT"

# Molecular target: PD-1-Fc
# Test: Fortebio (BLI), PD-1-Fc
row,Fortebio binding to PD-1-Fc Response Units,Binder
1,0.005 Response Units,"variant PD-L2 IgV-Fc V89D (Fc fusion, not shown: a dimerising Fc or GST; small tags and cut ends) LFTVTVPKELYIIEHGSNVTLECNFDTGSHVNLGAITASLQKVENDTSPHRERATLLEEQLPLGKASFHIPQVQVRDEGQYQCIIIYGDAWDYKYLTLK"
